Results on eight molecules are retold here after patent US20220098319A1 (SHANGHAI PHARMAEXPLORER, published 2022).

Numbering of substitutions follows the chain as printed.

The labels stand for the following.
B1: mAb020 (clone 24D6B4), murine anti-CD73 antibody (antibody, V domains shown)
VH: EVQLQQSGPELVKPGASVKIPCKASGYTFTDYNMDWVKQRHGKSLEWIGDINPNNGGTVYNQKFKGKATLTVDKSSNTAYMELRSLTSEDTAVYYCARISGTGYWYFDVWGTGTTVTVSS
VL: DIQMTQSPASLSVSVGETVTITCRASENIYSNLAWYQQKQGKSPQLLVYGATNLADGVPSRFSGSDSGTQYSLKINSLQSEDFGSYYCQHFWGTPWTFGGGTKLEIK
notes: Purified from hybridoma supernatant
B2: mAb044 (clone 80H7D6), murine anti-CD73 antibody (antibody, V domains shown)
VH: EVKLVESGGGLVQPGGSLRLSCAASGFTFTDYYMSWVRQPPGKALEWLGFIRNKADGSTTEYSASVKGRFTISRDNSQSILYLQMNALRPEDSATYYCTRSPIYFDNWYFDVWGTGTTVTVSS
VL: DIVMSQSPSSLAVSVGEKVTMTCKSSQSLLYSNNQKNYLAWYQQKPGQSPKLLIYWASTRESGVPDRFTGSGSGTDFTLTLSSVKAEDLAVYYCQQYYSYPFTFGSGTKLEIK
notes: as for B1
B3: mAb038 (clone 69C9E12), murine anti-CD73 antibody (antibody, V domains shown)
VH: QVQLQQPGTELVNPGASVKLSCKASGYTFTSYWMHWVKQRPGQGLEWIGNINPSNGGTHYNEKFNNKATLTVDKSSSTAYMQLSSLTSEDSAVFYCARGDYAYDWYFTVWGTGTTVTVSS
VL: DIVLTQSPASLAVSLGQRAIISCKASQSVSFAGTGLMHWYQQKPGQQPKLLIYRVSNLEAGIPTRFSGSGSRTDFTLNIHPVEEDDAATYYCQQNREFPWTFGGGTKLEIK
notes: as for B1
B4: mAb041 (clone 71E10B3), murine anti-CD73 antibody (antibody, V domains shown)
VH: QVQLQQPGTELVKPGASVKLSCKASGYTFTSYWMHWVKQRPGQGLEWIGNINPSNGGTNYNQKFKSKATLTVDKSSNTASMQLSSLTSEDSAVYYCARGDYGYDWYLDVWGTGTTVTVSS
VL: B3 VL with T34P, G35S, V55T, I62V, R72G
notes: as for B1
B5: mAb034 (clone 60G1C8), murine anti-CD73 antibody (antibody, V domains shown)
VH: DVQLQESGPGLVKPSQSLSLTCSVTGYSITSRYYWNWIRQFPGNKLEWMGYMTYDGTNNYNPSLTNRISITRDTSKNQFFLKLNSVTAEDTATYFCARGGWDPFDYWGQGTTLTVSS
VL: DIQMTQSPAALSASVGETVTITCRASDNIYSYLAWYQQKQGKCPQLLVKNAKTLAEGVPSRFSGSGSGTQFSLRINSLQPDDFGTYYCQHYYGTPLTFGAGTKLELK
notes: as for B1
B6: mAb036 (clone 66H6C12), murine anti-CD73 antibody (antibody, V domains shown)
VH: QVQLQQSGAEVVKPGASVKISCKASGYVFSSYWINWVKQRPGKGLEWIGKIFPGNGDTDYNGNFKGKATLTADKSSSTAYMQLSSLTSEDSAVYFCAGFADWGQGTLVTVSA
VL: DIQMTQSPSSLSASLGERVSLTCRASQDIGERLIWLQQEPDGTFKRLIYATSSLDSGVPKRFSGSSSGSDYSLTISRLESEDFVDYYCLQYASSPYTFGGGTKLEIK
notes: as for B1
B7: mAb042 (clone 77B9A3), murine anti-CD73 antibody (antibody, V domains shown)
VH: QVQLQQSGAGLVKPGASVKLSCKASGYTFTNYWMHWVKQRPGQGLEWIGMIHPNSGSTNNNEKFKNKATLTVDKSSNTAYMQLSSLTSEDSAVYYCARFFFGGYPHYYALDYWGQGTSVTVSS
VL: DIVMTQSQKFMSTTVGDRVSITCKASQNVGTAVAWYQQKPGQSPKLLIYSASDRYTGVPDRLTGSGSGTDFTLTISNVQSEDLADYFCQQYSSFPLFTFGSGTKLVIQ
notes: as for B1
B8: mAb065 (clone 125A4E10), murine anti-CD73 antibody (antibody, V domains shown)
VH: EVQLQQSGPELVKPGASVKISCKASGYTFTDYYMNWVKQSHGKSLEWIGNINPNNGDTNYNQKFKGKATLTVDKSSSTASMELRSLTSEDSAVYYCANSGYYYFDYWGQGTTLTVSS
VL: DIVMTQSPSSLTVTAGEKVTMSCKSSQSLLNSGNQKNYLTWYQQKPGQPPKVLIYWASTRESGVPDRFTGSGSGTDFTLTISSVQAEDLAVYYCQNDYSYPPTFGGGTNLEIK
notes: as for B1

The first assay has as its target T1, murine CD73 (on transfected CHOK1 cells) (mouse, UniProt Q61503 29-551).
T1 construct: whole, on cells; also called CHOK1-mCD73; mCD73
T1 sequence (looked up): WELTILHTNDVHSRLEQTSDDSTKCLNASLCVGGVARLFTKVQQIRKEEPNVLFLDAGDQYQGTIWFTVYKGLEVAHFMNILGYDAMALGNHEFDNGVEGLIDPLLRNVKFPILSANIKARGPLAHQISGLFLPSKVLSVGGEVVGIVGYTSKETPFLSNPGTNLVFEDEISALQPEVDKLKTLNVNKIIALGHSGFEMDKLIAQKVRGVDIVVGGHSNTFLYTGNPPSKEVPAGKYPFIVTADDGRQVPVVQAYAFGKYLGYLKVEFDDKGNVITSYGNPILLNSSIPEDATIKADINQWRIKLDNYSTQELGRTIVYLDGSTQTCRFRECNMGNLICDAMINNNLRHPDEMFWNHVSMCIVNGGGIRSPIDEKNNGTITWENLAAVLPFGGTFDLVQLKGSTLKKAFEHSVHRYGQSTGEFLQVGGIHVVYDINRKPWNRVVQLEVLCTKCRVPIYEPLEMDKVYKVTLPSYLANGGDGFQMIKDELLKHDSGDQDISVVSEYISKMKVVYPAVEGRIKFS
Kind of assay: FACS on CHOK1-mCD73 cells.
In the case of B1, the binding result is recorded as “no binding (tested: 10 ug/ml initial concentration)”.
As for B2, the binding result is “no binding (tested: 10 ug/ml initial concentration)”.
Consider B3, for which the binding result is “no binding (tested: 10 ug/ml initial concentration)”.
For B4, the binding result was “no binding (tested: 10 ug/ml initial concentration)”.
The same measure, in the same setting: the value for B5 was “no binding (tested: 10 ug/ml initial concentration)”.
Regarding B6, the binding result is “no binding (tested: 10 ug/ml initial concentration)”.
On the same count and under the same terms, the value for B7 was “no binding (tested: 10 ug/ml initial concentration)”; that for B8 was “no binding (tested: 10 ug/ml initial concentration)”.

A further assay concerns the target T2, human CD73 (full length, on transfected CHOK1 cells) (human, UniProt P21589 27-549).
T2 construct: whole, on cells; also called CHOK1-hCD73; hCD73
T2 sequence (looked up): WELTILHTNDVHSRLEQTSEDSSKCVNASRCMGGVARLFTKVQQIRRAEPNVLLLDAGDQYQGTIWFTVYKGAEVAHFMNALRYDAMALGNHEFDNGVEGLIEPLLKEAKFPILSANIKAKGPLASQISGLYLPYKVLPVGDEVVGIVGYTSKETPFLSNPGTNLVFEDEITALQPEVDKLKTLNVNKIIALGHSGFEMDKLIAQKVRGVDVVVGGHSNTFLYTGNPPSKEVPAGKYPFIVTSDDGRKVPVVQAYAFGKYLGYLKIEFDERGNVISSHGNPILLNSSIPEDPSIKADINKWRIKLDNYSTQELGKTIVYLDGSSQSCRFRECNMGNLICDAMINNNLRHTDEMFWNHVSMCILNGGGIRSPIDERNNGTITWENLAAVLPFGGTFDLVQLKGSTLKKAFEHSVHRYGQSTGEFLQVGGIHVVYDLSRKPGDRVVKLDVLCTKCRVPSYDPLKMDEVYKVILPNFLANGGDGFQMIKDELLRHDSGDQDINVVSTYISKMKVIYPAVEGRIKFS
Kind of assay: FACS on CHOK1-hCD73 cells. The procedure: The titration binding curve was produced by the following method:
The CHOK1 stable cell line transfected with human CD73 was expanded to a 75-90% confluence in a T-75 cell culture flask. The medium was aspirated, washed 1-2 times with PBS, and then treated with trypsin (Tryple express: Life technology) and cells were collected. The cells were washed with PBS buffer for 1-2 times. After counted, the cells were diluted with PBS to 1-2×10⁶ cells per ml, added with 1% fetal bovine serum (FBS) blocking solution, incubated on ice for 20-30 minutes, and then washed twice with HBSS by centrifugation. The collected cells were suspended with FACS buffer (PBS+2% FBS) to 2×10⁶ cells/ml, added to a 96-well FACS reaction plate at 100 microliters per well, and centrifuged at 300 g for 5 minutes to discard the supernatant. Anti-CD73 antibody was prepared with blocking solution to an initial concentration of 10 ug/ml and serially diluted at 8 points. 100 microliter per well of that antibody sample to be tested were added and incubated at 4° C. for 1-2 hours. […] The plate was washed 2-3 times with FACS buffer by centrifugation, added with 100 μl fixative solution (4% Paraformaldehyde) per well to suspend the cells. 5-10 minutes later, it was washed 1-2 times with FACS buffer by centrifugation. The cells were suspended with 100 microliters of FACS buffer, FACS (FACSCalibur, BD) was used for detection and the results were analyzed, as shown in FIG. 1 and Table 4.
B1: the EC50 was determined as 1.8 nM and the “MAX MFI” value is 7540 MFI.
The like results for B2 were, in that order, 1.6 nM and 7540 MFI.
Turning to B3, the EC50 stood at 0.4 nM and the “MAX MFI” value is 5230 MFI.
The like results for B4 were, in that order, 2.9 nM and 8160 MFI.
Consider B5, for which the EC50 was more than 10 nM and the “MAX MFI” value worked out at 5820 MFI.
Taken in the same sequence, the figures for B6 were 0.3 nM and 5290 MFI.
Taken in the same sequence, the figures for B7 were more than 10 nM and 13900 MFI.
Taken in the same sequence, the figures for B8 were 1.1 nM and 4650 MFI.

A further assay addresses T3, cynomolgus monkey CD73 (on transfected CHOK1 cells) (cynomolgus monkey, UniProt A0A2K5V5U7 27-549).
T3 construct: whole, on cells; also called CHOK1-cCD73; CHOK1-CCD73
T3 sequence: T2 sequence (looked up) with M199T, T350A, V466I
Kind of assay: FACS on CHOK1-cCD73 cells.
For B1, the EC50 came to 3.4 nM and the “MAX MFI” value is 9960 MFI.
Taken in the same sequence, the figures for B2 were 3.4 nM and 12300 MFI.
The like results for B3 were, in that order, 0.3 nM and 7400 MFI.
The like results for B4 were, in that order, 1.9 nM and 9570 MFI.
Regarding B5, the EC50 was determined as 0.2 nM and the “MAX MFI” value was determined as 3210 MFI.
The like results for B6 were, in that order, 0.9 nM and 7490 MFI.
The like results for B7 were, in that order, 3.9 nM and 8770 MFI.
Taken in the same sequence, the figures for B8 were 2.5 nM and 3250 MFI.

The target of a further assay is T2, human CD73 (full length, on transfected …). Kind of assay: cell-based or functional assay.
As for B1, the “Enzyme activity blocking assay, IC50” value is 0.1 nM and the “Enzyme activity blocking assay, MAX % inhibition” value turned out to be 63%.
Regarding B2, the “Enzyme activity blocking assay, IC50” value was found to be 0.5 nM and the “Enzyme activity blocking assay, MAX % inhibition” value came out at 53.5%.
Taken in the same sequence, the figures for B3 were 1 nM and 53.3%.
Taken in the same sequence, the figures for B4 were 4 nM and 35.7%.
Taken in the same sequence, the figures for B5 were 0.1 nM and 73.7%.
On to B6, for which the “Enzyme activity blocking assay, IC50” value is 0.2 nM and the “Enzyme activity blocking assay, MAX % inhibition” value was found to be 72.3%.
As for B7, the “Enzyme activity blocking assay, IC50” value came out at 0.1 nM and the “Enzyme activity blocking assay, MAX % inhibition” value was found to be 47.9%.
Taken in the same sequence, the figures for B8 were 0.3 nM and 56.4%.
